From patent publication US20070065890A1, “Method for promoting formation of facultative heterochromatin” (priority 2005, published 2007)

Target: endogenous histone H1
Assay: cell-based or functional assay

Substance: deletion mutant G4-ΔNSirT1 (Δ(1-268)) (from UniProt P04386 1-147)
- derepression of the Gal4 pTK-Luc reporter (compare G4-SirT1 with G4-ΔN-SirT1): 20%
